# Reference: article PMC10323135
# Biological target: Norovirus-like particle displaying C-terminal SpyTag (norovirus VP1 capsid protein fused with a C-terminal SpyTag) (norovirus strain Hu/GII.4/Sydney/NSW0514/2012/AU)
# Test: SDS-PAGE mobility shift of the covalent SpyTag/SpyCatcher conjugate
substance,measurement,value
SpyCatcher-M2e (SpyCatcher fused with the ectodomain of influenza matrix-2 protein) (designed binder),conjugation efficiency,24%
